According to paper PMC3614025:
Several values for one entry are separate records, joined by “and”; a condition that tells them apart may be missing. Equal entries are not always repeated.

Target: Chikungunya virus nuclear capsid protein (Chikungunya virus)
Experiment: cryo-EM structure

Chikungunya virus nuclear capsid protein (natural protein)
stoichiometry N: 5 and 6
